# Measurements: the DeepSol protein solubility set
# Experiment: soluble on expression in E. coli; label from the status in PepcDB or PDB records
row,Sequence,soluble on expression in E. coli
1,SLKTKTFKMQLQFLSEQNLEINNNNQLLNQEKITYLQKIEQLKCKLEYQERMIKDSEKIREESFASAKAALFDLGKDLSKQLIEIHKMENNTTRELAEKNIETASQKFNTELERLITMVGALNKDIEQSKGTVDLIKQSLLSPIGAGLLSEITLENILKSSGLRPNLDFIMQYSLTTSDSVKLRPDAIIFLPSGNLMVIDSKASKFLVDSQDNSVHLSKTMNYHLKTLTNKDYAENILTNLNKKTQNFNNVITLMFLPTEQAVEKVIAANPEFLQKAWGCNIFPVGPAGLMNMLSFAKFQITDNRRSENYKVIIEEVRKLLSSIGTIADYSKKIGYNLQNMVTNYDKFAASFNRNVMSRVKSIQKLGIDSGNKIIPATLERYQIVSAKSEIIEVDVENQHK,soluble
2,SLLLKMDAFQDRLGTRGMLVRKGDHDETKVLPAVPVPQVRAANLPAAQAGDARIGTLPALFQALRASLPADEECNGLQAGDAQEPLTVTRLSTDKLLVSTDCWMGAYNVGTGVRVLNARAPFSCQPW,not soluble
3,SLLLKQAIVYPITSQKFQGDVLVIGEKIAEVKPSIQPTQDMTVIDARALHLLPGFIDVHTHLGLYDEGTGWAGNDANETSEVSTPHIRSLDGIHPFDIAFQDAVQNGITTVHVMPGSQNIIGGTTCVIKTAGTCIDHMIIQEPAGLKIAFGENPKKVHSNGTKESITRMGIMGLLRESFYEAQHYGHEADFRMLPILKALRREIPVRIHAHRADDISSALRFATEFNLDLRIEHCTEGHFIVEELSKHNLKVSVGPTLTRRSKIELKNKTWDTYHILSKNGVEVSITTDHPYTPIQYLNVCAAVAVREGLDEKTALEGITIFPARNLRLEDRIGSIETGKDADLVLWTHHPFHYLAKPVLTMIDGKIIYKKNKKN,soluble
4,SLPLPLVVAVLDSEDEKEGRTCAIVAFGFRYIHPASGAQVDVPEGYVTDFASIPAPVRGLFPPFGRHAKAAVLHDWLYLIGEPGQRAFADRIFLDAMDDLRVSLVRRSIMHRAVRLAGGGAYAKEASTWARAFGNWRTGDRHTPPFTAESRYQAHWPVPPRPDFRP,not soluble
5,SLPMQHVHTSPVRDYRNRCARREGETVFQVVVEETDLRVTALAELATPMAAYVGELRAQLKVWMEFQPAFRHSLVPVEVPEGAPEVVRRMAHGARLVGVGPFAAVAGTIAQMVAERFVDVSPELIVENGGDLYLYSERDRVVGILPDPASGDMVGILVRAGTAPVSLCGSSARIGHSLSLGDGDLAVVRARDASLADAAATAFGNMLRRADDVAAVTERAAQLASIGIEGVYAQCGGRIGIWGDMELAVA,soluble
6,SLPVLAPVTKDPATSLYTIPFHDGASLVLDVAGPLVWSTCKGGQPPAEIPCSSPTCLLANAYPAPGCPAPSCGSDKHDKPCTAYPYNPVSGACAAGSLSHTRFVANTTDGSKPVSKVNVGVLAACAPSKLLASLPRGSTGVAGLANSGLALPAQVASAQKVANRFLLCLPTGGPGVAIFGGGPVPWPQFTQSMPYTPLVTKGGSPAHYISARSIVVGDTRVPVPEGALATGGVMLSTRLPYVLLRPDVYRPLMDAFTKALAAQHANGAPVARAVVAVAPFGVCYDTKTLGNNLGGYAVPNVQLGLDGGSDWTMTGKNSMVDVKQGTACVAFVEMKGVAAGDGRAPAVILGGAQMEDFVLDFDMEKKRLGFSRLPHFTGCGGL,soluble
7,SLPVSYIENQSAVINQGDFLTQLSNIKNYSSKLSTNFYDNYEKITNWVLSGANINELTQFNIQPQIMRGFDGFQNVLMTGYYSPILYARHSPQGQFKNPIYRMPVKKRLSRAQIYAGALAGKRLELAYSDSMLENFLLGVQGSGYVDFGDGNLNYFAYAGQNGYPYTAIGRLLVEDGEIPKEKMSIQAIREWGNRNPSRIQSLLERNEAYVFFKNDPSGKVKGSAGVPLVAMASVASDRNIIPSGSVLLVEVPDIDNNGNWLGTHKLHLMVALDVGGAVKGHHFDLYRGIGARAGHIAGLSKHYGRVWVLR,soluble
8,SLQLRPSFLLSSLRPSLTGARRLVETIFLGSRPWMPGTPRRLPRLPQRYWQMRPLFLELLGNHAQCPYGVLLKTHCPLRAAVTPAAGVCAREKPQGSVAAPEEEDTDPRRLVQLLRQHSSPWQVYGFVRACLRRLVPPGLWGSRHNERRFLRNTKKFISLGKHAKLSLQELTWKMSVRDCAWLRRSPGVGCVPAAEHRLREEILAKFLHWLMSVYVVELLRSFFYVTETTFQKNRLFFYRKSVWSKLQSIGIRQHLKRVQLREEG,not soluble
9,SLQMQGITGSNITVLELVERYLSLKTGVKHNTLANYKFVVNVLKKEEFAYKKVDDVKLSDAKIFLIKLQRDGRGYSSIHSIRGVLRPAFQMAVDDDLILKNPFGFELGTVLVNDSQKRQAVSPEDETKFLDFVKNDPHYNQYYDAFYILFKTGLRISEFCGLTVKDLDFKEDIINVNHQLQRTREMKYIIVSTKTTSGTRLLPMEADVKEAFLRILKNRRKPKREPMVDGYGGFLFLDKNGRPMVALHWEKYMQHAREKYNRENLLQLPPVTPHICRHTYCTNMANSGMNPKTLQYLMGHSDVSVTLNIYTHTGYDDAKKELARLKEARDELEKKKFITQKHAQTTHVSLIS,not soluble
10,SLRFVDEYRAPEQVMQLIEHLRERASHLSYTAERPLRIMEVCGGHTHAIFKFGLDQLLPENVEFIHGPGCPVCVLPMGRIDTCVEIASHPEVIFCTFGDAMRVPGKQGSLLQAKARGADVRIVYSPMDALKLAQENPTRKVVFFGLGFETTMPTTAITLQQAKARDVQNFYFFCQHITLIPTLRSLLEQPDNGIDAFLAPGHVSMVIGTDAYNFIASDFHRPLVVAGFEPLDLLQGVVMLVQQKIAAHSKVENQYRRVVPDAGNLLAQQAIADVFCVNGDSEWRGLGVIESSGVHLTPDYQRFDAEAHFRPAPQQVCDDPRARCGEVLTGKCKPHQCPLFGNTCNPQTAFGALMVSSEGACAAWYQYRQQESEA,soluble
11,SLRRWDQGLEKPRLDYSEFFTEDVGQLPGLTIWQIENFVPVLVEEAFHGKFYEADCYIVLKTFLDDSGSLNWEIYYWIGGEATLDKKACSAIHAVNLRNYLGAECRTVREEMGDESEEFLQVFDNDISYIEGGTASGFYTVEDTHYVTRMYRVYGKKNIKLEPVPLKGSSLDPRFVFLLDQGLDIYVWRGAQATLSNTTKARLFAEKINKNERKGKAEITLLVQGQEPPGFWDVLGGEPSEIKNHVPDDFWPPQPKLYKVGLGLGYLELPQINYKLSVEHKKRPKVELMPGMRLLQSLLDTRCVYILDCWSDVFIWLGRKSPRLVRAAALKLGQELCGMLHRPRHTVVSRSLEGTEAQVFKAKFKNWDDVLTVDYTRNAEAVLQGQGLSGKVKRDTEKTDQMKADLTALFLPRQPPMPLAEAEQLMEEWNEDLDGMEGFVLEGRKFTRLPEEEFGHFYTQDCYVFLCRYWVPVEYEEEEKTEDKEGKASAEAREGEEAAAEAEEKQPEEDFQCIVYFWQGREASNMGWLTFTFSLQKKFESLFPGKLEVVRMTQQQENPKFLSHFKRKFIIHRGKRKVTQGTLQPTLYQIRTNGSALCTRCIQINTDSSLLNSEFCFILKVPFESEDNQGIVYAWVGRASDPDEAKLAEDILNTMFDASYSKQVINEGEEPENFFWVGIGAQKPYDDDAEYMKHTRLFRCSNEKGYFAVTEKCSDFCQDDLADDDIMLLDNGQEVYMWVGTQTSQVEIKLSLKACQVYIQHTRSKEHERPRRLRLVRKGNEQRAFTRCFHAWSTFRQAPA,not soluble
12,SLSGRIVYNFNPGWRFHRGDIKGAEAVRFDDTSWQVVSVPHTVELMPAEASGCRNYQGVAWYRKHFVIPQDMKGKEVSLHFEGAMGKQVIYLNGKRVQEHLGGYLPFTVQLTEQGVQPGDSCLLAVMTDNSDDKNFPPGKRQYTLDFAYHGGIYRDVWMIGKSSVAITDALEADKVAGGGVFVHFDNISGKKAEVYVDTEVHNSGKQTRTVAVETVLADAGDVPVKRVSQQVKLQAGESKTVRQRFAVRNPKLWSPDSPYLYRIQSRVKAGHEVLDGGVTRVGIRKAEFKGKDGFWLNGKPFGQLVGANRHQDFAYVGNALPNSQQWRDAKRLRDAGCTIIRVAHYPQDPAFMDACDEMGLFVIVATPGWQYWNKNPEFAKLVHRNTREMIRRDRNHPSVLMWEPILNETPYPRDFALEALRITREEFPYPGRPVAAADVHSKGVAENYDVVYGWPGDDEKADRPEQCIFTREFGENVDDWYAHNNNNRASRSWGERPLLVQALSLSKSYDEMYRTTGQFVGGAQWHPFDHQRGYHPDPYFGGIYDAFRQPKYAYYAFRSQSAATLKHPVAECGPMVFIAHEMSPFSDADVVVFSNCDSVRLSVYDGTESRTLPVVHAQGHMPNAPVIFKDVWDFWEAREYSYKQKNWQKVNMVAEGIIDGKVVCTYKRMPSRRSTKLRMYVDTEGKQLVADGSDFIVVVAEVTDDSGNVRRLAKENIVFTVEGEGRIIGDASINANPRTVEFGSAPVLIRSTRKPGKIKVKAHVQFEGTNAPVATEIELESIPSELPFCYTEEG,not soluble
